Results reported in patent US20230295301A1 (SHANGHAI JUNSHI BIOSCIENCES, published 2023).

T1: huCTLA-4 ECD (his-tag) (human, UniProt P16410 37-162)
T1 construct: also called HX1 hCTLA4 his; HX1 huCTLA4 his; not shown: his-tag
T1 sequence: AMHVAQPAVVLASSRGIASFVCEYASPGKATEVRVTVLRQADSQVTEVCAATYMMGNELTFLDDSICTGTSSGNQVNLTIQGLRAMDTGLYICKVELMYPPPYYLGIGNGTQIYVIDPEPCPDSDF


target: T1, huCTLA-4 ECD (his-tag); assay: ELISA, coated huCTLA-4 his
Procedure: HX1 hCTLA4 his was diluted with PBS (Hyclone) to 1.0 μg/mL, and the dilution was added to a microplate at 100 μL/well. The plate was let stand in an incubator at 37° C. and coated for 90 min and then washed, and 2% BSA was added to the plate at 200 μL/well. The plate was incubated in an incubator at 37° C. for 90 min and then washed. The humanized anti-CTLA-4 antibodies in Table 4 and the control antibody (ipilimumab) were diluted with a diluent (2% BSA) to 1000 ng/mL. The dilution performed each time was not higher than 10-fold. Then, the humanized antibodies and the control antibody were serially diluted 2.5-fold on a sample dilution plate. All the humanized antibody solutions and the control antibody solution were added to a microplate at 100 μL/well. The plate was incubated in an incubator at 37° C. for 60 min and then washed. An HRP-conjugated goat anti-human antibody IgG (Fc specific) was diluted 5000-fold with 2% BSA, and the dilution was added to the microplate at 100 μL/well. The plate was incubated in an incubator at 37° C. for 60 min and then washed. The color development solution TMB was added at 100 μL/well, during which bubbles were avoided. Color development was allowed at 37° C. for 15 min in the dark and then terminated by adding 2 M hydrochloric acid solution at 100 μL/well, during which bubbles were avoided. Reading (wavelength: 450/620 nm) was done within 10 min using a microplate reader.

Binder | binding result
huJS007-48 (antibody, human IgG1, kappa, V domains shown) VH: QVQLQESGPGLVKPSQTLSLTCTVSAYSITSGYYWNWIRQHPGKGLEWIGYIGYDGSNNYNPSLKSRVTISRDTSKNQFSLKLSSVTAADTAVYYCARDYYSGYFDSWGQGTTLTVSS VL: DIQMTQSPSSLSASVGDRVTITCRASQNVGTYVAWYQQKPGKAPKPLIYSTSYRYSGVPSRFSGSGSGTDFTLTISSLQPEDFATYFCHQYDTYPLTFGAGTKLELKR | binds
HuJS007-49 (antibody, V domains shown, 4B7 VH2-2 + 4B7VL4; constant regions not specified) VH: QVQLQESGPGLVKPSQTLSLTCTVSAYSITSGYYWNWIRQHPGKGLEWIGYIGYDGSNNYNPSLKSRVTISRDTSKNQFSLKLSSVTAADTAVYYCARDYYSGYFDSWGQGTTLTVSS VL: DIQMTQSPSFLSASVGDRVTITCRASQNVGTYVAWYQQKPGKAPKPLIYSTSYRYSGVPSRFSGSGSGTEFTLTISSLQPEDFATYFCHQYDTYPLTFGAGTKLELK | binds
HuJS007-73 (antibody, V domains shown, 1A5 VH5 + 4B7VL1; constant regions not specified) VH: QVQLQESGPGLVKPSQTLSLTCAVSGYSISSGYYWNWIRQPPGKGLEWIGYIGYDGSNYYNPSLKSRVTMSVDTSKNQFSLKLSSVTAVDTAVYYCARNYYSGYFDSWGQGTTVTVSS VL: DIVMTQSPDSLAVSLGERATINCKASQNVGTYVAWYQQKPGQPPKPLIYSTSYRYSGVPDRFSGSGSGTDFTLTISSLQAEDVAVYFCHQYDTYPLTFGAGTKLELK | binds
HuJS007-53 (antibody, V domains shown, 4B7 VH2-2 + 4B7VL8; constant regions not specified) VH: QVQLQESGPGLVKPSQTLSLTCTVSAYSITSGYYWNWIRQHPGKGLEWIGYIGYDGSNNYNPSLKSRVTISRDTSKNQFSLKLSSVTAADTAVYYCARDYYSGYFDSWGQGTTLTVSS VL: DIVMTQSPDSLAVSLGERATINCKASQNVGTYVAWYQQKPGQPPKPLIYSTSYRYSGVPDRFSGSGSGTDFTLTISSLQAEDVAVYFCHQYDTYPLTFGQGTKLEIK | binds
HuJS007-80 (antibody, V domains shown, 1A5 VH5 + 4B7VL8; constant regions not specified) VH: QVQLQESGPGLVKPSQTLSLTCAVSGYSISSGYYWNWIRQPPGKGLEWIGYIGYDGSNYYNPSLKSRVTMSVDTSKNQFSLKLSSVTAVDTAVYYCARNYYSGYFDSWGQGTTVTVSS VL: DIVMTQSPDSLAVSLGERATINCKASQNVGTYVAWYQQKPGQPPKPLIYSTSYRYSGVPDRFSGSGSGTDFTLTISSLQAEDVAVYFCHQYDTYPLTFGQGTKLEIK | binds
HuJS007-100 (antibody, V domains shown, 4B7 VH2-5 + 4B7VL1; constant regions not specified) VH: QVQLQESGPGLVKPSQTLSLTCAVSGYSITSGYYWNWIRQPPGKGLEWIGYIGYDGSNNYNPSLKNRVTMSVDTSKNQFSLKLSSVTAVDTAVYYCARDYYSGYFDSWGQGTTVTVSS VL: DIVMTQSPDSLAVSLGERATINCKASQNVGTYVAWYQQKPGQPPKPLIYSTSYRYSGVPDRFSGSGSGTDFTLTISSLQAEDVAVYFCHQYDTYPLTFGAGTKLELK | binds
HuJS007-50 (antibody, V domains shown, 4B7 VH2-2 + 4B7VL5; constant regions not specified) VH: QVQLQESGPGLVKPSQTLSLTCTVSAYSITSGYYWNWIRQHPGKGLEWIGYIGYDGSNNYNPSLKSRVTISRDTSKNQFSLKLSSVTAADTAVYYCARDYYSGYFDSWGQGTTLTVSS VL: DIQMTQSPSSLSASVGDRVTITCQASQNVGTYVAWYQQKPGKAPKPLIYSTSYRYSGVPSRFSGSGSGTDFTFTISSLQPEDIATYFCHQYDTYPLTFGAGTKLELK | binds
HuJS007-64 (antibody, V domains shown, 4B7 VH2-4 + 4B7VL1; constant regions not specified) VH: QVQLQESGPGLVKPSQTLSLTCAVSAYSITSGYYWNWIRQHPGKGLEWIGYIGYDGSNNYNPSLKSRVTISRDTSKNQFSLKLSSVTAADTAVYYCARDYYSGYFDSWGQGTTLTVSS VL: DIVMTQSPDSLAVSLGERATINCKASQNVGTYVAWYQQKPGQPPKPLIYSTSYRYSGVPDRFSGSGSGTDFTLTISSLQAEDVAVYFCHQYDTYPLTFGAGTKLELK | binds

Second part, the binder after the results:

binding result | Binder
binds | HuJS007-89 (antibody, V domains shown, 1A5 VH6 + 4B7VL8; constant regions not specified) VH: QVQLQESGPGLVKPSQTLSLTCAVSGYSISSGYYWNWIRQFPGKGLEWMGYIGYDGSNYYNPSLKNRVTMSVDTSKNQFSLKLSSVTAVDTAVYYCARNYYSGYFDSWGQGTTVTVSS VL: DIVMTQSPDSLAVSLGERATINCKASQNVGTYVAWYQQKPGQPPKPLIYSTSYRYSGVPDRFSGSGSGTDFTLTISSLQAEDVAVYFCHQYDTYPLTFGQGTKLEIK
binds | HuJS007-60 (antibody, V domains shown, 4B7 VH2-3 + 4B7VL6; constant regions not specified) VH: QVQLQESGPGLVKPSETLSLTCTVSGYSITSGYYWNWIRQPPGKGLEWIGYIGYDGSNNYNPSLKSRVTISRDTSKNQFSLKLSSVTAADTAVYYCARDYYSGYFDSWGQGTTLTVSS VL: DIVMTQSPDSLAVSLGERATINCKASQNVGTYVAWYQQKPGQPPKLLIYSTSYRYSGVPDRFSGSGSGTDFTLTISSLQAEDVAVYYCHQYDTYPLTFGQGTKLEIK
binds | HuJS007-51 (antibody, V domains shown, 4B7 VH2-2 + 4B7VL6; constant regions not specified) VH: QVQLQESGPGLVKPSQTLSLTCTVSAYSITSGYYWNWIRQHPGKGLEWIGYIGYDGSNNYNPSLKSRVTISRDTSKNQFSLKLSSVTAADTAVYYCARDYYSGYFDSWGQGTTLTVSS VL: DIVMTQSPDSLAVSLGERATINCKASQNVGTYVAWYQQKPGQPPKLLIYSTSYRYSGVPDRFSGSGSGTDFTLTISSLQAEDVAVYYCHQYDTYPLTFGQGTKLEIK
binds | HuJS007-78 (antibody, V domains shown, 1A5 VH5 + 4B7VL6; constant regions not specified) VH: QVQLQESGPGLVKPSQTLSLTCAVSGYSISSGYYWNWIRQPPGKGLEWIGYIGYDGSNYYNPSLKSRVTMSVDTSKNQFSLKLSSVTAVDTAVYYCARNYYSGYFDSWGQGTTVTVSS VL: DIVMTQSPDSLAVSLGERATINCKASQNVGTYVAWYQQKPGQPPKLLIYSTSYRYSGVPDRFSGSGSGTDFTLTISSLQAEDVAVYYCHQYDTYPLTFGQGTKLEIK
binds | HuJS007-62 (antibody, V domains shown, 4B7 VH2-3 + 4B7VL8; constant regions not specified) VH: QVQLQESGPGLVKPSETLSLTCTVSGYSITSGYYWNWIRQPPGKGLEWIGYIGYDGSNNYNPSLKSRVTISRDTSKNQFSLKLSSVTAADTAVYYCARDYYSGYFDSWGQGTTLTVSS VL: DIVMTQSPDSLAVSLGERATINCKASQNVGTYVAWYQQKPGQPPKPLIYSTSYRYSGVPDRFSGSGSGTDFTLTISSLQAEDVAVYFCHQYDTYPLTFGQGTKLEIK
binds | HuJS007-69 (antibody, V domains shown, 4B7 VH2-4 + 4B7VL6; constant regions not specified) VH: QVQLQESGPGLVKPSQTLSLTCAVSAYSITSGYYWNWIRQHPGKGLEWIGYIGYDGSNNYNPSLKSRVTISRDTSKNQFSLKLSSVTAADTAVYYCARDYYSGYFDSWGQGTTLTVSS VL: DIVMTQSPDSLAVSLGERATINCKASQNVGTYVAWYQQKPGQPPKLLIYSTSYRYSGVPDRFSGSGSGTDFTLTISSLQAEDVAVYYCHQYDTYPLTFGQGTKLEIK
binds | HuJS007-71 (antibody, V domains shown, 4B7 VH2-4 + 4B7VL8; constant regions not specified) VH: QVQLQESGPGLVKPSQTLSLTCAVSAYSITSGYYWNWIRQHPGKGLEWIGYIGYDGSNNYNPSLKSRVTISRDTSKNQFSLKLSSVTAADTAVYYCARDYYSGYFDSWGQGTTLTVSS VL: DIVMTQSPDSLAVSLGERATINCKASQNVGTYVAWYQQKPGQPPKPLIYSTSYRYSGVPDRFSGSGSGTDFTLTISSLQAEDVAVYFCHQYDTYPLTFGQGTKLEIK
binds | HuJS007-46 (antibody, V domains shown, 4B7 VH2-2 + 4B7VL1; constant regions not specified) VH: QVQLQESGPGLVKPSQTLSLTCTVSAYSITSGYYWNWIRQHPGKGLEWIGYIGYDGSNNYNPSLKSRVTISRDTSKNQFSLKLSSVTAADTAVYYCARDYYSGYFDSWGQGTTLTVSS VL: DIVMTQSPDSLAVSLGERATINCKASQNVGTYVAWYQQKPGQPPKPLIYSTSYRYSGVPDRFSGSGSGTDFTLTISSLQAEDVAVYFCHQYDTYPLTFGAGTKLELK
binds | HuJS007-55 (antibody, V domains shown, 4B7 VH2-3 + 4B7VL1; constant regions not specified) VH: QVQLQESGPGLVKPSETLSLTCTVSGYSITSGYYWNWIRQPPGKGLEWIGYIGYDGSNNYNPSLKSRVTISRDTSKNQFSLKLSSVTAADTAVYYCARDYYSGYFDSWGQGTTLTVSS VL: DIVMTQSPDSLAVSLGERATINCKASQNVGTYVAWYQQKPGQPPKPLIYSTSYRYSGVPDRFSGSGSGTDFTLTISSLQAEDVAVYFCHQYDTYPLTFGAGTKLELK
binds | HuJS007-107 (antibody, V domains shown, 4B7 VH2-5 + 4B7VL8; constant regions not specified) VH: QVQLQESGPGLVKPSQTLSLTCAVSGYSITSGYYWNWIRQPPGKGLEWIGYIGYDGSNNYNPSLKNRVTMSVDTSKNQFSLKLSSVTAVDTAVYYCARDYYSGYFDSWGQGTTVTVSS VL: DIVMTQSPDSLAVSLGERATINCKASQNVGTYVAWYQQKPGQPPKPLIYSTSYRYSGVPDRFSGSGSGTDFTLTISSLQAEDVAVYFCHQYDTYPLTFGQGTKLEIK
binds | HuJS007-105 (antibody, V domains shown, 4B7 VH2-5 + 4B7VL6; constant regions not specified) VH: QVQLQESGPGLVKPSQTLSLTCAVSGYSITSGYYWNWIRQPPGKGLEWIGYIGYDGSNNYNPSLKNRVTMSVDTSKNQFSLKLSSVTAVDTAVYYCARDYYSGYFDSWGQGTTVTVSS VL: DIVMTQSPDSLAVSLGERATINCKASQNVGTYVAWYQQKPGQPPKLLIYSTSYRYSGVPDRFSGSGSGTDFTLTISSLQAEDVAVYYCHQYDTYPLTFGQGTKLEIK
